Tests used:
Format in all cases: biochemical, Quillaja saponaria
[1] = Experiment 6-1: screening of rhamnosidases for derhamnosylation of saponins in treated bark extract (2%), QS-17 2296 to QS-18 2150 (PAR %); details: TBE 2%, pH 7.5, 30 degC, 18 h; TIC peak area ratio percent of rhamnosylated starting saponin to derhamnosylated product, LCMS/MS; negative controls 4.876, 5.225
[2] = Experiment 6-1: screening of rhamnosidases for derhamnosylation of saponins in treated bark extract (2%), desglucosyl-QS-17 2134 to QS-21 1988 (PAR %); details: TBE 2%, pH 7.5, 30 degC, 18 h; TIC peak area ratio percent, LCMS/MS; negative controls 2.719, 2.158
[3] = Experiment 6-1: screening of rhamnosidases for derhamnosylation of saponins in treated bark extract (2%), QS-17 2310 to QS-18 2164 (PAR %); details: TBE 2%, pH 7.5, 30 degC, 18 h; TIC peak area ratio percent, LCMS/MS; negative controls 3.061, 2.429
[4] = Experiment 6-1: specificity of rhamnosidases towards other rhamnose residues (C3 saccharide rhamnose, C28 saccharide rhamnose); details: TBE 2%, pH 7.5, 30 degC, 18 h; LCMS/MS; negative controls 0.18, 0.17

Molecule | QS-17 (PAR %) [1] | Peak75 (PAR %) [2] | Peak57 (PAR %) [3] | ratio PP/QS-21 [4]
1081 (protein, Catenovulum agarivorans) MKNSNLFAKLLAVVLIFLSNPTLAVEWTAEWIWSKERFTDPNSWVVIRKEVNLESVGQNSTAYISADTKYWLWINGQLVVFEGSYTGGPSPVKPSPRVDFYPIASNKYYDQVDIGRYLKKGKNTIAALAWYYGDNGQKGTYISSNTGGFIFQAHVGDNVIATDSSWKVLPHPAYDKKVIKKSPYRVAAWSVKYDARKDLNDWSNKAWYMPGYDDSDWQTPRIKRQPPRPPFFGLYPSEIPPLNNYGLANCENYPESKFPFISDGKTIKCKLDFNKNFTPYFDIEAKAGQQIHIKSNMRLNTIETFYTTKAGRQQFESYSWLNGRIIEYRIPKGVKVHGLKYRWTGVGTTPGHFEADDAWYSRIWQMAENTLYICARDNFMDTPDRERGLWIGDVADQASYLFYSMDKPGRDLLKKAIKVTLAFSDSESGIFAGLGPGRFRELPAQSLQFIEQGIWHYYYNTGDLETLKFAYPYVHRYLTLWGIKDNGLATFRTGDWKWTDWGPQDTIDYDVIQNALYYSALVSARKMAKAVGDYTHIGLYSHRINSIKQAYQKHYWQNGYFSSNPNKFKDDRANAIAILFGLAKPEQYQQIVDNVLIPNHFASPHFEWMVYNAMAIAGRYEDALQRMKTRYAKQVDNQALSTLAEYLPSGGTENHAWNAPSTVLSQHIAGIAPTSVAWESYQVMPNMAHFKRVKQFVPSVQGDIDFEIQRDQQTVKIEIDSPENTTAIIGVPKQYFAIQTIMVNGKKLWENGQLTASISGIKLAGEDNKYVKFEVQPGHWLVTAQR | 5.348% | 2.473% | 2.624% | 0.17
1044 (protein, listed as Streptomyces sp.) MHETHPRRGGMTRRSVLAAGLTTGVLAALGPAAEAAASPAASPAASPAASASAGATPTASWFAAPARAVRPKFRWWWPDGLVDPAEIAREIDQMADAGFGGAEIAAVHHSISDTSVLDTAHHGWGSAPWRDGVKAALRQAARRGLTVDLTLGPSWPVAVPGVTPDDEAAVKELAYGKATLTGGAAFDGPVPAPVYAPASGVTVQKLFAVQAARVDTAYSSGKATGLDVDSVTDLTNRVADGNLRWTPPDSGTWVVLSYWQRGSGQQPEAGPHSSPAAYVIDHFSAAGTAAVTRYWDTAILDSTLRKLLKAAGGAFFEDSVELESKGLQWTPGLPDAFRAHTGRDLLPYLPAVILDNSNQVFAFEARLTQEIRHDFWETVSNLFNEHHLGALKKWAHGHGMKLRSQPYGLQTDAIASAAVLDIPEGESLGFKNLDDYRCLAGGRDMAGSRVLSCESGAYAGGAYNTTWDKFLRTMGGAYAAGVNQTVIHGFSYATAPGVSWPGFAAFSPYSGAPGYGESWGPRQPTWHHVADVAGYIGRVQQVLQSGTVRADVAVFRQTGYTATGIGASWLTSTGVPLGWTHQFLSGPLLDLPNAKVSGKRLAPDGPAYKALFLEGDFFYGSTPTLSVDDAHKLLKFARAGLPTVLLGAFGQALTPGLPDDGETDELRALTAELLALPNVRNVTDKTLVGAAFAELGVTSDVSYSVSSTLLNAHRVTDDADFYYLCNGKHAETVKPPVAAIDHDVTLRSTVRGGAGTVPYLLDPWSGRVTRLARYTRDGDAFTFRVTLQPGETLVVALGRPGLFGNRDGNRPHAVATDADEALFTGGRLAVRASAAGTFTTTLSTGRKVTTKVAEVPAAVTPDRWTLSVDDWRPGADATSTEVVRHSLTLDALLPWSQIPELADVGGIGTYRTTVTLPKSWSSATGALLRLGSVTDTCRVTVNGVRLDPVDRVNPVVDLGGRLRKGANTLEIEVATPLFNRLRVSNPAVFGTAARQAYGLVGPVQLVPYVQRTVA | 5.370% | 2.274% | 3.156% | 0.16
1009 (protein, Dyadobacter fermentans) MFKILRPIGFLAALLLLTGEMVMGQKSTQIISPSVFQNPPSTYGIRCWWWWLNGNVDKEVITRDLEEMKAKGFSGACLFDAGGAEQRGNAQVPAGPMFGSPQWRELYIHAMREADRLGLVMSMSIQSGWNLGGPDITAEESAKQVAFSQVQVKGNTRISQELPMPKTHHDFYRDIVVLAIPTKVFANRPPIRDFENKAATREVGASVPETRPLLTDIPGTPGEEDASKKQVLNITRHFKNGKLEWRAPAGEWTVLRFGYTATDAEVSTSSGDWQGLVIDYMSEKAFNRYWDTNVEPLLKAIGPLAGKTLRYLQTDSFEAGGMNWTDGFEKEFIKHRGYDPIPYLPVLAGKIIDSREVSNRFLSDLRKTLADLIAEKHYGVFSKRSAAYGIGIQPESAGPHAGPFDGLKNYGYSEIMMSEFWSPSPHRPRPIDRFFVKQAGSAAKIHNKKLVGAESFTTIGPHWNDVMWSDMKPSVDHEFSAGLNLVYLHTFTASPKAMGIPGQEYFAGTHFNPNVTWWNQSTAFIQYLTRCQYLLQSGTSVADVLYYYGDHSPNLGRLKEDDPAKALPGFDYDLINEDRLMELQAKDGKIFLPHGVSYRVLVLPDHKTLSLKALQKVEALVKEGASVIGSKTVTTASLVKYPASEQTVRQIADGLWGTGNEATGSRNVGKGTIAWGITAADFLRSKGVHFDMEITARETGSRYDYIHREDTGADFYFISSQNRAASKMTAAFRMTGKQPELWNPVTGETRPATSFYQKDGKTYIPLEFDPYGSVFVVFRDDIAKDQNGSAASNFVHLETATTLHGSWDVAFDPAWGGPAAVVFNELVSWPDRNEEGIKYYSGKAVYSKKFDASQDVAESKQVFLDLGEVKDIGIAKVTLNGKDLGILWAPPLRVPVGGVLKEKDNVLQIEVVNTWRNRLIGDRTKPVEKRFTKTNVKVLETWQLTPSGLLGPVRLLTGSEQ | 5.408% | 2.379% | 3.762% | 0.16
1021 (protein, listed as Paenibacillus sp.) MLQPYAPAIKNYYSAIGIDTPKPIFVWKLSSPLRNQKQTHYRITVAENAESLEEENNLLWDSGKVASDEQLGVMYKGSPLESTSRYCWRVAIWDSSGQSLWSEVQYFITGYLNSEHWSAKWIGDGSDAPFYARYEFDLNKKVKQAFALVSGLGQFKFYMNGRQVGDHEMDPGWTNYHKSVQYVGFDITDHLQSGKNAVGLHVGNGFFAGASGGRHFYTMDKGYEPYGDQLVAIGEWHIEFEDGSRIILRTGEEGWKVHESATTLANVYGSENFDARLYPDGYHVPGFDDSGWKPAQLLKPPAGNLVQQNQPPVKVKQVYDTLSVAEPLPGVYVFDLGQNMAGMFEIYASGPAGSKVIIKPGELMREDGTIATPWDIVTYSEFILAGTGEVEVWKPDFSYYGARWVQIEGCTRDEADTGRPMIHDVKGHFITSASQDTGTLSTDDVRIDKLADIITKAIESNLQSVHTDCPTIEKLGWLEASALMGPSIVYVKQAEELFLKIVRDMMEAQTEEGLIPDIAPEYSLFPDGFRDSIAWGIALLMVPDLLLERYNNFTAIEVAYPAMKRYMDYLKSKEIHDGLIGHGLGDWGIQPQTGGDYIENVETAFYYEGYRLMAKFAGILGFTDELEDYSAEAERIKLNYNKQLLHSLPENSPRYAYCKLGGQFDPANQVVQAIPLAFNLVPEEQLHNVEHALLQAVASRQFHSGEIGLRYLFLALSRLNRNDIVLDMMMQPEHPSYIRFVERGETSLPEFWTDEARSRNHDMMGHILEWLYKELLGISSASGAYKEILIAPFRSGRVKRVKGVHHSIRGEIGVEFSHSAEEIILNVQIPANTTATLQIPLLHGESQLYERGTRVLYEPFNQGAQIYARLKIGSGSYSYVNRV | 5.476% | 2.296% | 3.148% | 0.16
1072 (protein, listed as Kribbella flavida) MAEPVAPDGWTSGGPLAVAKLTAEYAEEPHGTDEVRPRLAWIATAPGYGATQSAYQVLVASQPELLSPEQADVWDSGQVGSDAVQVAYDGPALAARTRYHWAVRLWDGQGRAGRWSRPSWFETALLDEGFGAARWIGASTEAAPLLRRPFELTGPVRRARLYASGLAYAVLRVNGQQVGDAVLDPGFTNYDRTVLYVTHDVTELLQAGENVLGAELGRGFFGMTTPNVWRWHQAPWTGDPRLLARLVIDHEDGTTTELVSDGSWRVTSGPTVSDSLYAGERYDARLAQPGWDAPGFDDAAWSPAVELTAPQGTLRAQAHEPIRVVEEVAPVAISSPRAGVQVIDFGRTTAGWAKLRVEAPAGSRFTLVYGETLTADGQVEATNRHVDGDRFQQDEYVAAGHEIEQWEPRFSYKGFRYLQVTGDAEAEVVLKVVHSDVRAASRFDSDVEVYSWLEQAMRRTVLNNLHGIPTDTPIFEKNGWTGDAQVGAPTMASLVDLARFFTKWLDDLRDSQLPDGRLPVIVPSAGWGYAELAPATEWSTVYPFLLREMHRWYGDTRVLADHWDAVLRYLDWELERVEDGLSISVLGDWLPPGYPDGPPPEDSRLTATAYLHRAVTAVVEIGELIGETSELERLRKAAAELADGLNREFLDREAGLYRTAADPDYRQTSNAVPLAFGLVPEDQVPRVVANLVADVQARDFHLNTGCLGVGVLLPVLTQYGHADVAAKLAQQRTYPSWGYWLEEGADTLWEMWEADTRSRNHYFHGTVVQWLLESVAGLRNVGNGWQRIVVRPDARTGSTSAALRTDTVRGRVAASWRLVGRVLQLEVQVPVGCVAEVHVPSEAAADVTAVPSPYAGEPTRSDGYTVYTVPSGQWHFTSRTA | 5.457% | 2.462% | 3.245% | 0.17
1025 (protein, listed as Bacteroides xylanisolvens) MKKDYMKYQQNSKREEKSKFITNQLTNMAHISIRSYLYLLGTTLFSCAPQELKTPFELKCENIPVPVGVDTQTPRLSWKLPLLEEDSINRVEIWLSTDSTQLSGRQSGYWNKSIIGAPIRVSYDGQPLDSYTTYYWKIGYQTSSKQKTTFSPISSFTTGCLSPDNWKGKWITDKHDITYRPAPYYRKSFQLDKTIEQALLTIASAGLHELSVNGQRAGNHFLDPMYTHFDKRILSVTHDVTSLLSLGENVIGVQLGNGWYNHQSTAVWFFDKASWRNRPKFTAQLHLRYTDGTTEYLGTDSTWQTTDSPVIFNSIYTAEHYDAQKELAGWDSPGFNATGWYHAQETESPTETIKSQVMHPIRETARYTATQCKKINDSCYVYHFPKNIAGVTELKVKGKKGTKLRLKHGELLDKNGMVNMANIDYHYRPTDDSDPFQTDIVILSGKQDRFMPKFNYKGFQFVEVSSSAPIQLSDENLIAVEMHSDIPAIGYWSSSSDLLNKIWKATNSSYLANLFGYPTDCPQREKNGWTGDAHITIETGLYNFDGISIYEKWMNDFCDEQKDNGILPCIIPTSVWGYDWANGVDWTSAVAIIPWEIYRFYGDTTLLRRMYGPIKKYVSYIESISTNHLTDWGLGDWVPVRSKSNITLTSSIYYYTDVCILAKAARLFGYAEDASYYNTLAQKIKEAINTSFLNKETGIYAEGTQTELAMPLYWGIVPEEDKKKVAARLHELVEKDDYHLDVGLLGSKALLSAMSDNGYAETAYKVASQDTYPSWGVLDQTRCYNST | 5.495% | 2.330% | 2.933% | 0.18

Reference: patent US20240026407A1, “MODIFICATION OF SAPONINS” (GLAXOSMITHKLINE BIOLOGICALS SA, priority 2020, published 2024)
